For test [1], the target named is recombinant human tumor necrosis factor-α (human) (UniProt P01375). Description: cell-based or functional assay.
For test [2] the target is unchanged. Description: SPR, Biacore X100; antibody captured by goat anti-human IgG Fc on CM5 chip, TNFα as analyte. (In general: Surface plasmon resonance follows binding to a sensor surface in real time, without labels.)

pKd: −log10 of the molar value.

Sequence of recombinant human tumor necrosis factor-α (human) (P01375 77-233 limits assumed): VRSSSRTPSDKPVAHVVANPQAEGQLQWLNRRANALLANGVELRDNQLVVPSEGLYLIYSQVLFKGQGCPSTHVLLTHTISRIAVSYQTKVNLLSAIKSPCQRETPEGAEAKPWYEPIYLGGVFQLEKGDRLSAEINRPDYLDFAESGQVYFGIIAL

For “Humira (adalimumab, purchased from Abbott Laboratories) (antibody)”, in test [1], the EC50(ng/mL), neutralization of TNFα killing effect on L929 cell was determined as 19.1 ng/mL and the IC50 (concentration at which 50% of the rhTNFα toxicity to L929 cells can be neutralized) was 0.01 to 0.04 µg/mL. Further, in test [2], the Ka was 9.3e+09 M⁻¹ and the pKd was 9.97.

Usually pKd stands for −log10 of the Kd, conventionally taken in molar units.

The values above are taken from patent US20120219547A1.
